Experimental data taken from patent US6376459.

Target: CD40CR (CD40 counter-receptor), 39 kD membrane protein of activated murine helper T cells (murine) (UniProt P27548)
Test: flow cytometry on activated Th, FITC-RG7 detection

Chain of UniProt P27548 (P27548 whole entry): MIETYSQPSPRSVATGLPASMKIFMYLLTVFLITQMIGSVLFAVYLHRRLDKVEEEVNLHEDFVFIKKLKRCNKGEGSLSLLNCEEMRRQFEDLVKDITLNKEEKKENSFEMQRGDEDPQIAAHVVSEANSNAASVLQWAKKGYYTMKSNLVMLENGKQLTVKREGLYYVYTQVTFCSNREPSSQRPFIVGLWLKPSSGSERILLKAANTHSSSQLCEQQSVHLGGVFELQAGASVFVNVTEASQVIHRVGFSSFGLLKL

percent positive cells: 61%
Substance: MR1, hamster anti-murine gp39 monoclonal antibody
